Results from EP4818204A1 (Nanjing Leads Biolabs Co., Ltd., dated 2026).

Legend:
[1] = biological target: human AMH protein (human) (UniProt P03971); experiment: ELISA, coated protein, antibody at 4 µg/mL
[2] = biological target: human GDF8 protein (human) (UniProt O14793); experiment: ELISA, coated protein, antibody at 4 µg/mL
[3] = biological target: T1, human GDF3 protein (human, UniProt Q9NR23 251-364, limits assumed); experiment: ELISA, coated protein, antibody at 4 µg/mL
T1 construct: Bought
T1 sequence (looked up): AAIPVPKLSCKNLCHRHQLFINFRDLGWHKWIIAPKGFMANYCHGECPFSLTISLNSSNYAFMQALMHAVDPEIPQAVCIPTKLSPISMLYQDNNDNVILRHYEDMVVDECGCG

[4] = biological target: T2, human Activin B protein (human, UniProt P09529 293-407); experiment: ELISA, coated protein, antibody at 4 µg/mL
T2 construct: Bought; Activin B is by nature a dimer of inhibin beta B chains
T2 sequence (looked up): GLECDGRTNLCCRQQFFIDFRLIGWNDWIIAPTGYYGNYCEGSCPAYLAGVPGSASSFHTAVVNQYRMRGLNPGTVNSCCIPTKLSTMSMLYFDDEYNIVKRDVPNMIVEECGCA

[5] = biological target: T3, human FcRn protein (human, UniProt P55899 24-297); experiment: BLI (Octet RED96e), FcRn on SA sensor, antibody as analyte, binding and dissociation at pH 6.0, 1:1 model
T3 construct: Bought, loaded on a streptavidin (SA) sensor; FcRn is by nature a heterodimer with beta-2-microglobulin
T3 sequence (P55899 24-297 limits assumed, form in doubt): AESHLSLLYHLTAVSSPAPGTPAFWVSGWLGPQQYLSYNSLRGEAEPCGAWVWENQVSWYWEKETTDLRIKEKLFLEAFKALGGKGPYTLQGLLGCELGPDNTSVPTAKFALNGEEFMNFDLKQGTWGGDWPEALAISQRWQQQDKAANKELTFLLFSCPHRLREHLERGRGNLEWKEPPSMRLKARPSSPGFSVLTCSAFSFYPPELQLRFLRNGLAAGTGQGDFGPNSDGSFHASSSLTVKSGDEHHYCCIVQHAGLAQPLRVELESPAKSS

B1: Hu19C4C7 (antibody, human IgG1, kappa)
heavy: QVQLVQSGAEVKKPGSSVKVSCKASGYSFTGYIMNWVRQAPGQSLEWMGDIDPYYGGPNYNQKFQGRVTITVDKSTSTAYMELSSLRSEDTAVYYCSRRDYNYGSFAYWGQGTLVTVSSASTKGPSVFPLAPSSKSTSGGTAALGCLVKDYFPEPVTVSWNSGALTSGVHTFPAVLQSSGLYSLSSVVTVPSSSLGTQTYICNVNHKPSNTKVDKKVEPKSCDKTHTCPPCPAPEAAGAPSVFLFPPKPKDTLMISRTPEVTCVVVDVSHEDPEVKFNWYVDGVEVHNAKTKPREEQYNSTYRVVSVLTVLHQDWLNGKEYKCKVSNKALPAPIEKTISKAKGQPREPQVYTLPPSREEMTKNQVSLTCLVKGFYPSDIAVEWESNGQPENNYKTTPPVLDSDGSFFLYSKLTVDKSRWQQGNVFSCSVMHEALHNHYTQKSLSLSPGK
light: QIVLTQSPATLSLSPGERATLSCRASSSVNYMHWYQQKPGQAPRPLIYATSNLATGIPARFSGSGSGTDYTLTISSLEPEDFAVYYCQQWSDNPPTFGQGTKLEIKRTVAAPSVFIFPPSDEQLKSGTASVVCLLNNFYPREAKVQWKVDNALQSGNSQESVTEQDSKDSTYSLSSTLTLSKADYEKHKVYACEVTHQGLSSPVTKSFNRGEC
notes: Humanized form of murine 19C4C7; human IgG1 constant region with L234A, L235A, G237A and kappa light chain constant region; also called hu19C4C7-IgG1-mut(L234A,L235A,G237A)
[1]
  OD value (OD 450 nm-620 nm): 0.0887
[2]
  OD value (OD 450 nm-620 nm): 0.0505
[3]
  OD value: 0.0862 OD 450 nm-620 nm
[4]
  OD value: 0.12 OD 450 nm-620 nm
[5]
  Kd: 7.41 nM
  koff: 0.0146 s⁻¹
  kon: 1.97e+06 M⁻¹ s⁻¹
